For the test, the target named is H3K9ac nucleosome with 147 bp DNA.

Take “G60A SIRT6 (from UniProt Q8N6T7 2-355) (enzyme)”: the Km for the nucleosome substrate in the Western blot-based deacylation assay is 0.088 µM.

The values above are taken from publication PMC12051053.
